In paper PMC9405553, “G-Quadruplex Formed by the Promoter Region of the hTERT Gene: Structure-Driven Effects on DNA Mismatch Repair Functions”:

Assays:
ecMutS [1] = target: T1, ecMutS (Escherichia coli, UniProt P23909 1-853); assay: EMSA; ecMutS: 20 mM HEPES-KOH pH 7.9, 5 mM MgCl2, 120 mM KCl, 0.5 mg/mL BSA, 1 mM ADP, 37 C 15 min, 5 nM DNA; ecMutL/ngMutL: 20 mM HEPES pH 8.0, 100 mM KCl, 0.5 mg/mL BSA, 1 mM DTT, on ice 10 min, 20 nM DNA; gels in TAE at 4 C; conditions: protein: recombinant; tags: N-terminal His6; chain copies: 2; text says bottom strand; blunt, one T:G mismatch at strand 1 position 22
T1 sequence: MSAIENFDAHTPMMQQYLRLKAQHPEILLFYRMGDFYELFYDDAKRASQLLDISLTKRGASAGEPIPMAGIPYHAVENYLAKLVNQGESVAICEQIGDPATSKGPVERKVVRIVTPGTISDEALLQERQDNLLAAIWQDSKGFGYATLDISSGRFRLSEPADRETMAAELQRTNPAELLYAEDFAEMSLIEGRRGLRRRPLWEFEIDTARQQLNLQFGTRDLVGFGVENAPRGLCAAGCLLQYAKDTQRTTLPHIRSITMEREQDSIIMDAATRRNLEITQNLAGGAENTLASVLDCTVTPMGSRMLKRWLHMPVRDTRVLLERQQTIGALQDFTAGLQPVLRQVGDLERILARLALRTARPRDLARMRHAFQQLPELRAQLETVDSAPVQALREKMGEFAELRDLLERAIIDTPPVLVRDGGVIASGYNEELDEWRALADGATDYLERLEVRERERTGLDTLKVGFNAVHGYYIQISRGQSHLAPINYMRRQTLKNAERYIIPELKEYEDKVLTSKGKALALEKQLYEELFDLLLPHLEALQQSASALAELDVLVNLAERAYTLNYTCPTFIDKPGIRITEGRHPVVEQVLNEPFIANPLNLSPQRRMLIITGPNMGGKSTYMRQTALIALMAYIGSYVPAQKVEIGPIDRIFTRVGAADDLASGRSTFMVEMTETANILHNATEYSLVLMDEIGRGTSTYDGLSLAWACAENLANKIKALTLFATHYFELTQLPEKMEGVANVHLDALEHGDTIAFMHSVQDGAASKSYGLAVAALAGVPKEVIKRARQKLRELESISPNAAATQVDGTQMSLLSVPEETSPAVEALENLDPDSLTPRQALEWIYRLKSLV

ecMutS [2] = target: T1, ecMutS; assay: EMSA; 1 mM ADP, 5 mM MgCl2; ecMutS: 20 mM HEPES-KOH pH 7.9, 5 mM MgCl2, 120 mM KCl, 0.5 mg/mL BSA, 1 mM ADP, 37 C 15 min, 5 nM DNA; ecMutL/ngMutL: 20 mM HEPES pH 8.0, 100 mM KCl, 0.5 mg/mL BSA, 1 mM DTT, on ice 10 min, 20 nM DNA; gels in TAE at 4 C; conditions: protein: recombinant, tags: N-terminal His6, chain copies: 2
ngMutL = target: T2, ngMutL (Neisseria gonorrhoeae (FA 1090 in Fig. …, UniProt Q5F8M6 1-658)); assay: EMSA; ecMutS: 20 mM HEPES-KOH pH 7.9, 5 mM MgCl2, 120 mM KCl, 0.5 mg/mL BSA, 1 mM ADP, 37 C 15 min, 5 nM DNA; ecMutL/ngMutL: 20 mM HEPES pH 8.0, 100 mM KCl, 0.5 mg/mL BSA, 1 mM DTT, on ice 10 min, 20 nM DNA; gels in TAE at 4 C; conditions: protein: recombinant, tags: N-terminal His6, chain copies: 2
T2 sequence: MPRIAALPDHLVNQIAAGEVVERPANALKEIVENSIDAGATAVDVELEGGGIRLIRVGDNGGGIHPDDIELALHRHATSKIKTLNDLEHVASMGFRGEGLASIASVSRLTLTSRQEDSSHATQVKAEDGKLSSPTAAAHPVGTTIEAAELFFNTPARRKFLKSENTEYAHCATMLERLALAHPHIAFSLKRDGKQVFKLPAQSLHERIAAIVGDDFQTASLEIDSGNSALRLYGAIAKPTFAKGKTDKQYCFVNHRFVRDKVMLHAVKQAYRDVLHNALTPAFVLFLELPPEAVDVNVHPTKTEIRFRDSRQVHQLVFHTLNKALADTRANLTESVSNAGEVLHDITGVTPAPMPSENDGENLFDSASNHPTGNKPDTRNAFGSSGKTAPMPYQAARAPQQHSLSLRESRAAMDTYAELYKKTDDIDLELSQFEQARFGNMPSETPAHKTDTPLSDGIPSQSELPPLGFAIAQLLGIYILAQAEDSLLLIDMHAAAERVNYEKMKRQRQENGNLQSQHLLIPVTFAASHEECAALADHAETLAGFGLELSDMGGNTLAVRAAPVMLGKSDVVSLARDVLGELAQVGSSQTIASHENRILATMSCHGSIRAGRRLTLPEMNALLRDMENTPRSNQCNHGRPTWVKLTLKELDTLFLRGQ

ecMutL = ecMutL (Escherichia coli (K12 in Fig. S2 legend), UniProt P23367 1-615); assay: as above; conditions: protein: recombinant, tags: N-terminal His6, chain copies: 2
ecMutS [3] = target: T1, ecMutS; assay: competition; vs ds76-G/T-3', 65 nM ecMutS dimer; ecMutS: 20 mM HEPES-KOH pH 7.9, 5 mM MgCl2, 120 mM KCl, 0.5 mg/mL BSA, 1 mM ADP, 37 C 15 min, 5 nM DNA; ecMutL/ngMutL: 20 mM HEPES pH 8.0, 100 mM KCl, 0.5 mg/mL BSA, 1 mM DTT, on ice 10 min, 20 nM DNA; gels in TAE at 4 C; conditions: protein: recombinant; tags: N-terminal His6; chain copies: 2; label: none; three stacked parallel intramolecular G4s
[4] = text says 5' for ecMutS assays, single parallel intramolecular G4
[5] = label: 5'-TAMRA, three stacked parallel intramolecular G4s
[6] = label: 3'-TAMRA, three stacked parallel intramolecular G4s

Chain of ecMutL (P23367 whole entry): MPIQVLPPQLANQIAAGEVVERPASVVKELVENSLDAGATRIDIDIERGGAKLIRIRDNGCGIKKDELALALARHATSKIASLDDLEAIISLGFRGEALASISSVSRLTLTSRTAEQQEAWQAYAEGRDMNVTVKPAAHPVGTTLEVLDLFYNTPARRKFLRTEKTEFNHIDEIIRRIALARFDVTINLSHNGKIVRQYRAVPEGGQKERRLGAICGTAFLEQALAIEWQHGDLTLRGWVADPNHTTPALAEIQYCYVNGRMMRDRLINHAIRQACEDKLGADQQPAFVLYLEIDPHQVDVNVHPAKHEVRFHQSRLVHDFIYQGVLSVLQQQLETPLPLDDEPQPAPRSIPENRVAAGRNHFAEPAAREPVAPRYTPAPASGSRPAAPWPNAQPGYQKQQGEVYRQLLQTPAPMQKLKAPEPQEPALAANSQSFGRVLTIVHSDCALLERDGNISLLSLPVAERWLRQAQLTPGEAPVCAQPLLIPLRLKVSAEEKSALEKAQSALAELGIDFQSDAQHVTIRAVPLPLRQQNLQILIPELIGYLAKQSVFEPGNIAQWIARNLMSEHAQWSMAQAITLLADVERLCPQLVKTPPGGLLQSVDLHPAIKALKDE

B1: ds76-G/T-3' (dsDNA)
DNA 1: ATAGGACGCTGACACTGGTGCTTGGCAGCTGAGCCATATGCTCGAGTAACGCTCATAGGATCCAAGCGCGAAAGGA
DNA 2: TCCTTTCGCGCTTGGATCCTATGAGCGTTACTCGAGCATATGGCTCAGCTGCCAGGCACCAGTGTCAGCGTCCTAT
ecMutS [1]
  Kd: 35 ± 3 nM

B2: 95G4 (structured_DNA)
DNA: ATAGGACGCTGACACTGGTGCTTGGCAGCTGAGCCATATTTGGGTGGGTGGGTGGGTTGCTCGAGTAACGCTCATAGGATCCAAGCGCGAAAGGA
ecMutS [2]; [4]
  Kd: 38 ± 5 nM
ngMutL; [4]
  Kd: 41 ± 1 nM
ecMutL; [4]
  Kd: 120 ± 20 nM

B3: ds96/96* (dsDNA)
DNA 1: ACCTGGATGCCTATAGGGCGAATTGGGTACCGCTGAATTGCACTGGACTTGATCCTCGATGATCCTAAGCTAAGCTTCAGCTCCAGCCTAAGCCTG
DNA 2: CAGGCTTAGGCTGGAGCTGAAGCTTAGCTTAGGATCATCGAGGATCGAGTCCGGTGCAATTCAGCGGTACCCAATTCGCCCTATAGGCATCCAGGT
ngMutL; label: 3'-TAMRA on strand 1, blunt
  Kd: 125 ± 5 nM

B4: WT-5' (structured_DNA)
DNA: GCCGCGGAAAGGAAGGGGAGGGGCTGGGAGGGCCCGGAGGGGGCTGGGCCGGGGACCCGGGAGGGGTCGGGACGGGGCGGGGTCCGCGCGGAGGAG
ecMutS [2]; [5]
  Kd: 15 ± 6 nM
ecMutL; [5]
  Kd: 115 ± 30 nM

B5: WT (structured_DNA)
DNA: GCCGCGGAAAGGAAGGGGAGGGGCTGGGAGGGCCCGGAGGGGGCTGGGCCGGGGACCCGGGAGGGGTCGGGACGGGGCGGGGTCCGCGCGGAGGAG
ecMutS [3]
  IC50: 32 ± 3 nM
  Ki: 28 ± 5 nM

B6: G250A (unlabeled) (structured_DNA)
DNA: GCCGCGGAAAGGAAGGGGAGGGGCTGGGAGGGCCCGGAGGGGGCTGGGCCGGGGACCCGGAAGGGGTCGGGACGGGGCGGGGTCCGCGCGGAGGAG
ecMutS [3]
  IC50: 40 ± 15 nM
  Ki: 35 ± 15 nM

B7: G242,243A (unlabeled) (structured_DNA)
DNA: GCCGCGGAAAGGAAGGGGAGGGGCTGGGAGGGCCCGGAGGGGGCTGGGCCGGAAACCCGGGAGGGGTCGGGACGGGGCGGGGTCCGCGCGGAGGAG
ecMutS [3]
  IC50: 28 ± 7 nM
  Ki: 25 ± 8 nM

B8: WT-3' (structured_DNA)
DNA: GCCGCGGAAAGGAAGGGGAGGGGCTGGGAGGGCCCGGAGGGGGCTGGGCCGGGGACCCGGGAGGGGTCGGGACGGGGCGGGGTCCGCGCGGAGGAG
ngMutL; [6]
  Kd: 49 ± 3 nM

B9: G228A-5' (structured_DNA)
DNA: GCCGCGGAAAGGAAGGGGAGGGGCTGGGAGGGCCCGGAAGGGGCTGGGCCGGGGACCCGGGAGGGGTCGGGACGGGGCGGGGTCCGCGCGGAGGAG
ecMutS [2]; [5]
  Kd: 24 ± 6 nM
ecMutL; [5]
  Kd: 170 ± 40 nM

B10: G242,243A-3' (structured_DNA)
DNA: GCCGCGGAAAGGAAGGGGAGGGGCTGGGAGGGCCCGGAGGGGGCTGGGCCGGAAACCCGGGAGGGGTCGGGACGGGGCGGGGTCCGCGCGGAGGAG
ngMutL; [6]
  Kd: 51 ± 2 nM

B11: G228A (unlabeled) (structured_DNA)
DNA: GCCGCGGAAAGGAAGGGGAGGGGCTGGGAGGGCCCGGAAGGGGCTGGGCCGGGGACCCGGGAGGGGTCGGGACGGGGCGGGGTCCGCGCGGAGGAG
ecMutS [3]
  IC50: 35 ± 4 nM
  Ki: 31 ± 6 nM

B12: G250A-5' (structured_DNA)
DNA: GCCGCGGAAAGGAAGGGGAGGGGCTGGGAGGGCCCGGAGGGGGCTGGGCCGGGGACCCGGAAGGGGTCGGGACGGGGCGGGGTCCGCGCGGAGGAG
ecMutS [2]; [5]
  Kd: 30 ± 7 nM
ecMutL; [5]
  Kd: 130 ± 30 nM

B13: G228A-3' (structured_DNA)
DNA: GCCGCGGAAAGGAAGGGGAGGGGCTGGGAGGGCCCGGAAGGGGCTGGGCCGGGGACCCGGGAGGGGTCGGGACGGGGCGGGGTCCGCGCGGAGGAG
ngMutL; [6]
  Kd: 44 ± 3 nM

B14: G250A-3' (structured_DNA)
DNA: GCCGCGGAAAGGAAGGGGAGGGGCTGGGAGGGCCCGGAGGGGGCTGGGCCGGGGACCCGGAAGGGGTCGGGACGGGGCGGGGTCCGCGCGGAGGAG
ngMutL; [6]
  Kd: 42 ± 2 nM

B15: G242,243A-5' (structured_DNA)
DNA: GCCGCGGAAAGGAAGGGGAGGGGCTGGGAGGGCCCGGAGGGGGCTGGGCCGGAAACCCGGGAGGGGTCGGGACGGGGCGGGGTCCGCGCGGAGGAG
ecMutS [2]; [5]
  Kd: 27 ± 4 nM
ecMutL; [5]
  Kd: 110 ± 20 nM
